# From US6537972B1, “Compositions and methods for inhibiting human immunodeficiency virus infection by down-regulating human cellular genes” (Subsidiary No. 3., Inc., priority 1997, dated 2003)
# B1: CF-266: GSE; antisense, gene encoding human eukaryotic initiation factor 4B (nucleic acid)
# antisense: GCCGTTCTTCTACTTCTCTTTCTCAAGCAGCAGTGTCAACAGGCTTTGCCCCTCCAAAGATAGAAGCAGCTCGAGTGGACTGGGAGGTACTAGCAGA
# B2: CF-313: GSE; sense, gene encoding a human protein tyrosine phosphatase (nucleic acid)
# sense: CATTTTGTTACATAAGGATGACTTTTTTATACAATGGAATAAATTATGGCATTTCTATTGAAATTTCAACGCTTTTGTTTCTTTGGCAACCACAC
# B3: CF-025: GSE; antisense, gene for the ND2 subunit of human NADH dehydrogenase (nucleic acid)
# antisense: GAAGAAGCAGGCCGGATGTCAGAGGGGTGCCTTGGGTAACCTCTGGGACTCAGAAGTGAAAGGGGGCTATTCCTAGTTTTATTGCTATAGCCATTATGATTATTAATGATGAGTAT
# B4: CF-204: GSE; antisense, gene encoding human calnexin (nucleic acid)
# antisense: GGTTGTCAATCACAGGTCGCCACCAGACACCACATCCAGGAGCTGACTCACATCTAGGGTTGGCAATCTGAGGAGCCTCCCATTCTCCATCCATGTCTTCATCCCAA
# B5: CF-273: GSE; sense, gene encoding human eukaryotic initiation factor 3 (nucleic acid)
# sense: GCTCGTCAGTGTCCACCCCTCCTCGCAACTCCAGGCGCTCCTTTTTCTGCTCCATATAGAGCTCCTGGGCCATTTTCCGGTACTTCCGGAAATCTTCCATCATGGTGCGCCTTC
# B6: CF-311: GSE; antisense, gene encoding a human protein tyrosine phosphatase (nucleic acid)
# antisense: GGGGGCTCTGTTTGGTGGTCTCTCTAGCTGCACTGGTCTATCAAGCTGTTGGCTGGTCTCTCTCTCTGGCTGGGGATC
# B7: CF-317: GSE; antisense, gene encoding phosphatidyl-inositol 3 kinase (nucleic acid)
# antisense: CCAAGCTTCCTATCTTAAGCTGGGCGTTGATATCCAGGTCACAACTATAGATGTAGTGAAACTTCTCTGCTTCCCCCATCGCACCGTCTGCAAAGGTACCACC
# B8: CF-004: GSE; sense, gene encoding human 2-oxoglutarate dehydrogenase (nucleic acid)
# sense: GCGCAAAGCACGCGACATGGTGGGGCAGGTGGCCATCACAAGGATTGAGCAGCTGTCGCCATTCCCCTTTGACCTCCTGCTGAAGGAGGTGCAGAAGTACCCCAA
# B9: CF-302: GSE; antisense, gene encoding CD44 (nucleic acid)
# antisense: GATCCCTGGGCGCGGGGCAGGGGCCGGCGGAGGACGGGACGAGGATGGCGGACCGAACCTGGCAGAGGCTGGG
# B10: CF-210: GSE; sense, gene encoding human herpesvirus-associated ubiquitin-specific protease (HAUSP) (nucleic acid)
# sense: GCATTACAAAGAGTGTTCTATGAATTACAGCATAGTGATAAACCTGTAGGAACAAAAAAGTTAACAAAGTCATTTGGGTGGGAAACTTTAGATAGCTTCATGCAACATGATGTT
# B11: CF-286: GSE; sense, gene encoding human elongation factor 1 alpha (nucleic acid)
# sense: CAGTTGGGGTGGGTGTCATCAAAGCAGTGGACAAGAAGGCTGCTGGAGCTGGCAAGGTCACCAAGTCTGCCCAGAAAGCTCAGAAGGCTAAATGAATATTATCCCTAATACCTGCCACCCCACTCTTAATCAGTGGTGGAAGAAC
# B12: CF-117: GSE; antisense, gene for the ND6 subunit of human NADH dehydrogenase (nucleic acid)
# antisense: GTGAAAGAGTATGATGGGGTGGTGGTTGTCGTAAACTTTAATAGTGTAGGAAGCTGAATAATTTATAAAGGAGAGGGGACAGGGTTGATTCGGGAGGATC
# B13: CF-315: GSE; antisense of a sequence with identity to the gene for the ND6 subunit of human NADH dehydrogenase (nucleic acid)
# antisense: AGATCCTATTGGTGCGTGGGCTTTGTATGATTATGGGCGTAGATTAGTAGTAGTTACTGGTTGAACATTGTTTGTTGGTGTATATATTGTAATTGGGATTGCTCGGGGGAATAGGTTATGTGATTAGGAGTAGGG
# B14: CF-101: GSE; sense, identity with the gene for the ND2 subunit of human NADH dehydrogenase (nucleic acid)
# sense: CATCAGCCCTTCTTAACATCTACTTCTACCTACGCCTAATCTACTCCACCTCAATCACACTACTCCCCATATCTAACAACGTAAAAATAAAATGACAGTTTGAGCATACAAAACCCACCCCATTCCTCCCCACACTCATCGCC
# B15: CF-319: GSE; sense, identity with the gene for the ND6 subunit of human NADH dehydrogenase (nucleic acid)
# sense: GATCCTCCCGAATCAACCCTGACCCCTCTCCTTCATAAATTATTCAGCTTCCTACACTATTAAAGTTTACCACAACCACCACGCCATCATACTCCTTCAC
# B16: CF-128: GSE; sense, gene for the ND4 subunit of human NADH dehydrogenase (nucleic acid)
# sense: TCCTAGTCCTCACAATCATGGCAAGCCAGCGCCACTTATCCAGTGAACCACTATCACGAAAAAAACTCTACCTCTCTATACTAATCTCCCTACAAATCTCCTTAATTATAATATTCACAACCACAGA
# Assays:
# [1] = test system: latent HIV provirus in OM10.1 cells; test: Inhibition of TNF-α induction of latent HIV provirus in OM10.1 cells (CD4 / p24 by flow cytometry); type: cell-based, HIV-1
# Method: OM10.1 cells were cultured in RPMI 1640 glucose-free media prior to and during incubation with NADH dehydrogenase inhibitors and TNF-α induction. The inhibitors were added to the cells followed by TNF-α induction 1-2 hours later. The expression of CD4 by the cells was assessed by anti-CD4 antibody staining and flow cytometry after 24 hour incubation at 37° C.
# HIV-1IIIB = test: GSE selection by prevention of productive infection of CEM-ss cells by HIV-1IIIB; type: cell-based; details: GSE from HeLa RFE library, selected in CEM-ss cells
# Method: Additionally, a normalized RFE library made from HeLa cells was transferred into CEM-ss cells and the neo resistant population was infected with TCID50 of 3000/10^6 cells of HIV-1IIIB. This RFE library was represented by 50×10^6 independent recombinant clones. Four and seven days after infection, a purified anti-CD4 monoclonal antibody, L77 (Becton Dickinson), was added at 5 μg/ml to prevent syncytia formation. Syncytia formation is thought to be prevented by blocking the interaction between gp120 expressed on the surface of an infected cell and CD4 on the surface of an uninfected cell. […] At 10-12 days after infection, CD4^+, p24^− cell population representing uninfected cells were sorted. Genomic DNA from the CD4^+, p24^− cells was purified and used for PCR amplification of inserts with the vector-derived primers. The amplified mixture was digested with EcoRI and BamHI and cloned back into the retroviral vector. The selection was repeated for additional rounds.
# (§1) In order to determine p24 expression in HIV-infected cells, the cells were first washed twice with Assay Buffer. About 10^6 cells were suspended in 100 μl Assay Buffer, mixed with 2 ml of Ortho PermeaFix Solution (Ortho Diagnostics), and incubated for 40 min. at room temperature. After centrifugation at 1200 rpm for 4 min. at 4° C., the cells were resuspended in 2 ml Wash Buffer (500 ml PBS, 25 ml fetal bovine serum, 1.5% bovine serum albumin and 0.0055% EDTA) for 10 min. at room temperature. After centrifugation, the cells were resuspended in 50 μl Wash Buffer and mixed with 1:500 dilution of an IgG22, antibody for 20 min. at 4° C., followed by incubation with 5-10 μl of anti-p24 antibody (KC57-FITC, Coulter) for 30 min. at 4° C. The cells were then washed twice with Wash Buffer and analyzed by flow cytometry.
# [2] = test system: latent HIV-1 provirus in OM10.1 cells; test: GSE selection by maintained CD4 expression in OM10.1 cells after TNF-α induction; type: cell-based; details: GSE from HL-60 RFE library, selected in OM10.1 cells
# Method: The libraries prepared from HL-60 cells according to the method of Section 6.1.1. supra, were transfected into the packaging cell line, PA317 (ATCC CRL #9078), and converted into retrovirus for infection of OM10.1 cells. Libraries in pLNCX vector were co-cultured and selected with G418. Libraries in pLNGFRM vector were transduced by spinoculation (centrifugation of target cells at 1200 xg for 90 min. in the presence of filtered retroviral supernatant) and selected by FACS sorting of the NGFR^+ population. After selection, the OM10.1 cells harboring the entire RFE library were induced with 10 U/ml of TNF-α at 37° C., and 24 hours later, were stained with an antibody and sorted for CD4 expression. Genomic DNA from the CD4^+ cells was purified and used for PCR amplification of inserts with the vector-derived primers. The amplified mixture was digested with EcoRI and BamHI and cloned back into the retroviral vector. The selection was repeated for additional rounds.
# For the immunofluorescent staining of CD4^+ cells for selection, 10^7 cells were washed twice with Assay Buffer (500 ml PBS, 1 ml of 0.5 mM of EDTA at pH 8, 0.5 ml of 10% sodium azide and 10 ml of fetal bovine serum), and resuspended in 500 μl PBS to which 50 μl of anti-CD4 antibody (Q4120 PE, Sigma) was added. After incubation at 4° C. for 30 min., 5 ml of Assay Buffer was added and the cells centrifuged at 1200 rpm for 4 min. The cells were washed twice with Assay Buffer before sorting by FACS. The aforementioned procedure was performed under sterile conditions.
# GSEs derived from cDNAs representing expressed human cellular genes were identified and isolated from a RFE library made from HL-60 cells using HIV provirus activation in OM10.1 cells as a read-out. Following transfection of the entire library into a packaging cell line, retrovirus carrying the library was used to infect OM10.1 cells by co-cultivation or spinoculation, and NGFR selection was performed to ensure the retention of the viral vector. When the infected cells were treated with TNF-α, a small number of residual CD4^+ cells were detected by an anti-CD4 antibody and sorted by FACS. The GSEs contained in these cells were recovered by PCR amplification and their nucleotide sequences determined.
# HIV-1SF2 = test: Protection of GSE-transduced CEM-ss cells from productive infection with HIV-1SF2 (intracellular p24); type: cell-based; details: HIV-1SF2 at TCID50 of 1000; versus LNGFRM vector control; FIG. 3, 23, 24
# Method: In Section 6.2, infra, several GSEs were tested for their ability to protect CEM-ss cells from infection with HIV-1 strain SF2. Uninfected cells were transduced with a retroviral construct containing either vector DNA or a GSE polynucleotide. Non-transduced cells were eliminated by selection of NGFR^+ cells by an antibody or by exposure to the selection agent, G-418. The percentage of p24^+ cells was determined at specific time points post infection.
# as §1
# A total of twenty GSEs were isolated by the two aforementioned selection strategies using OM10.1 and CEM-ss cells. […]
Molecule,suppression of HIV infection by the GSE (HIV-1IIIB),also measured
CCC1(CCC(C)C)C(=O)NC(=O)NC1=O [amytal],,"induction of latent HIV provirus in OM10.1 cells (retention of CD4 expression) ([1]; TNF-α-induced OM10.1 cells, 24 hour incubation, FIG. 25, 26): inhibited the induction of latent HIV provirus in OM10.1 cells in a dose-dependent manner; intracellular p24 levels in treated cells ([1]; compared with untreated controls): suppressed intracellular p24 levels"
B1,suppresses HIV infection,
B2,suppresses HIV infection,
B3,suppresses HIV infection,
B4,suppresses HIV infection,
B5,suppresses HIV infection,
B6,suppresses HIV infection,
B7,suppresses HIV infection,
B8,suppresses HIV infection,
B9,suppresses HIV infection,
B10,suppresses HIV infection,
B11,suppresses HIV infection,
B12,,suppression of HIV replication by the GSE [2]: suppresses HIV activities
B13,,productive HIV infection of GSE-containing CEM-ss cells (intracellular p24+ cells) (HIV-1SF2): inhibited infection of human T cells by HIV-1SF2; suppression of HIV replication by the GSE [2]: suppresses HIV replication
B14,,suppression of HIV replication by the GSE [2]: HIV-suppressive activities
B15,,suppression of HIV replication by the GSE [2]: suppresses HIV replication
B16,suppresses HIV infection,
